In publication PMC5159557 (Nucleic Acids Research, 2016):

Key:
Experiment in all cases: native MS
[1] = biological target: Cas7 subunit of Escherichia coli type I-E Cascade (Escherichia coli)
[2] = biological target: T1, Cas5 subunit of Escherichia coli type I-E Cascade (Escherichia coli, UniProt Q46898 1-224)
T1 sequence: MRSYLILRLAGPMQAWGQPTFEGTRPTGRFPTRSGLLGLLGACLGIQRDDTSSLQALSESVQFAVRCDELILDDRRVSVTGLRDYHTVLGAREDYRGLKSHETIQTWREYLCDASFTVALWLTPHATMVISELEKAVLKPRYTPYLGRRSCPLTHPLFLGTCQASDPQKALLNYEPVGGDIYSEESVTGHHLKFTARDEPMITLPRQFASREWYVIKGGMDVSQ

[3] = biological target: T2, Cas6e subunit of Escherichia coli type I-E Cascade (Escherichia coli, UniProt Q46897 1-199)
T2 sequence: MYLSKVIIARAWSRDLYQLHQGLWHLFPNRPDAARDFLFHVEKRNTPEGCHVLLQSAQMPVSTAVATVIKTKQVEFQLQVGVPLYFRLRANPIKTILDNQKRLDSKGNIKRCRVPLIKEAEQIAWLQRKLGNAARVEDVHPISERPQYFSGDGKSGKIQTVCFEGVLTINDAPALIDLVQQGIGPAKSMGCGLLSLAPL

Cas7 subunit of Escherichia coli type I-E Cascade (natural protein)
stoichiometry N [1]: 6

B1: Cse2 subunit of Escherichia coli type I-E Cascade, N-terminally fused to Strep-Tag II (natural protein)
chain: MADEIDAMALYRAWQQLDNGSCAQIRRVSEPDELRDIPAFYRLVQPFGWENPRHQQALLRMVFCLSAGKNVIRHQDKKSEQTTGISLGRALANSGRINERRIFQLIRADRTADMVQLRRLLTHAEPVLDWPLMARMLTWWGKRERQQLLEDFVLTTNKNA
binding result [2]: binds
binding result [3]: binds
